# How the values were obtained:
# OPM2 = test: Soluble BCMA (sBCMA) shedding after GSI (ELISA); type: cell-based, Human; set-up: unit not given here; conditions: Table 6 (sBCMA in supernatant, ELISA), 24 hours
# Raji = test: Cell surface BCMA expression after GSI, concentration series, lymphoma cells; type: cell-based; conditions: 24 hours, ± SD
# Description: Lymphoma cells (Raji cell line) were seeded in a 96-well U bottom plate at 40,000 cells/well. Cells were incubated for 24 hours in the presence of GSI diluted in RPMI medium (0.1% DMSO). The following concentrations of the GSI were tested: 1000 nM, 500 nM, 100 nM, 50 nM, 25 nM, 10 nM, 5 nM, 2.5 nM, 1 nM, 0.1 nM, 0.01 nM. 24 hours later cells were collected and washed with PBS+2% FBS, followed by staining with ZombieNIR Viability Dye (Biolegend) at 1 in 500 dilution in PBS at room temperature for 20 minutes. Next, cells were washed with PBS+2% FBS and stained with anti-BCMA PE-labelled antibody (Biolegend) diluted in PBS+2% FBS for 30 minutes at 4° C. Cells were acquired on BD Flow Cytometer and analyzed using FlowJo flow cytometry analysis software. Dead cells were removed from the analysis by gating on ZombieNIR negative population. BCMA MFI was plotted against GSI concentration to establish EC50.
# [1] = First in human Phase 1 clinical study: safety (CRS, DLT); type: in vivo
# Excerpt: This Example illustrates an ongoing Phase 1 open-label, multicenter clinical study of PF-06863135 (BCMAxCD3 bispecific) as monotherapy and in combination with sasanlimab, lenalidomide or pomalidomide, in adult patients with advanced multiple myeloma who have relapsed from or are refractory to standard therapy. The study has been registered on ClinicalTrials.gov with identifier NCT03269136 and was first posted August 2017. Study results for Part 1 of the trial and additional arms for the study are described in this Example.
# Part 1 of the Study is the […] single agent dose escalation arm at the dose levels of 0.1, 0.3, 1, 3, 10, 30, and 50 μg/kg Q1W by intravenous (IV) administration, and at the dose levels of 80, 130, 215, 360, 600 and 1000 μg/kg Q1W by subcutaneous (SC) administration. Upon reaching maximum tolerated dose (MTD)/maximum administered dose (MAD), patients can be treated at a dose level selected from the foregoing dose levels described in this paragraph, and below the MTD/MAD fora Q2W administration, both IV and SC, to further support the recommended phase 2 dose (RP2D) decision. For the study, dose limiting toxicity observation period is set at 21 days for Q1W dosing and 28 days for Q2W dosing. The treatment cycle, aka cycle, for Q1W dosing would be 3 weeks, and for Q2W dosing would be four weeks.
# Clinical Outcome of Part 1 of the Study. As of 15 Apr. 2020, a total of 23 patients were enrolled in Part 1 of the study and had been treated with PF-06863135 administered intravenously (IV) at 0.1 (N=2), 0.3 (N=3), 1 (N=2), 3 (N=3), 10 (N=2), 30 (N=5), and 50 (N=6) μg/kg. As of Aug. 21, 2020, a total of 30 patients were enrolled in Part 1 of the study and had been treated with PF-06863135 administered subcutaneously (SC) at 80 (N=6), 130 (N=4), 215 (N=4), 360 (N=4), 600 (N=6) and 1000 (N=6) μg/kg. Safety and efficacy data were available for in 23 IV and 30 SC treated patients per IMWG (International Myeloma Working Group) criteria.
# Part 1.1 of the Study is an alternative maintenance dose escalation arm for single agent PF-06863135. If excessive toxicity occurs or the maximum tolerated dose (MTD)/maximum administered dose (MAD) is reached at a dose level that is earlier than desired in Part 1 of the study described above, a priming dose will be administered one week prior to the day 1 cycle 1 administration of the dose (maintenance dose) at this dose level and for all subsequent dose levels in the dose escalation that may be initiated for Part 1.1. The priming dosing will be at a lower dose level than the maintenance dose.
# [2] = 600 μg/kg priming, 1000 μg/kg Q1W or Q2W SC, N = 20
compound,measurement,setting,value
"CCC[C@H](N[C@H]1CCc2cc(F)cc(F)c2C1)C(=O)Nc1cn(C(C)(C)CNCC(C)(C)C)cn1 [GSI, nirogacestat]",BCMA (-PE) MFI,"OPM2; OPM2, GSI 0.01 nM",6043.3
same,BCMA (-PE) MFI,"OPM2; OPM2, GSI 0.1 nM",8872.2
same,BCMA (-PE) MFI,"OPM2; OPM2, GSI 1 nM",8014
same,BCMA (-PE) MFI,"OPM2; OPM2, GSI 2.5 nM",7726.5
same,BCMA (-PE) MFI,"OPM2; OPM2, GSI 5 nM",7617.3
same,BCMA (-PE) MFI,"OPM2; OPM2, GSI 10 nM",6488.6
same,BCMA (-PE) MFI,"OPM2; OPM2, GSI 25 nM",4487.9
same,BCMA (-PE) MFI,"OPM2; OPM2, GSI 50 nM",3055.7
same,BCMA (-PE) MFI,"OPM2; OPM2, GSI 100 nM",1238.6
same,BCMA (-PE) MFI,"OPM2; OPM2, GSI 500 nM",23.8
same,BCMA (-PE) MFI,"OPM2; OPM2, GSI 1000 nM",0
same,BCMA MFI,Raji; GSI 0.01 nM,142.5 ± 0.8
same,BCMA MFI,Raji; GSI 0.10 nM,147.5 ± 20.6
same,BCMA MFI,Raji; GSI 1.00 nM,398 ± 34
same,BCMA MFI,Raji; GSI 2.50 nM,469 ± 31.2
same,BCMA MFI,Raji; GSI 5.00 nM,484 ± 43.9
same,BCMA MFI,Raji; GSI 10.00 nM,515.5 ± 47.4
same,BCMA MFI,Raji; GSI 25.00 nM,532 ± 42.5
same,BCMA MFI,Raji; GSI 50.00 nM,535 ± 65.1
same,BCMA MFI,Raji; GSI 100.00 nM,498.5 ± 20.6
same,BCMA MFI,Raji; GSI 500.00 nM,568.5 ± 50.3
same,BCMA MFI,Raji; GSI 1000.00 nM,534.5 ± 67.2
PF-06863135: heterodimeric humanized full-length bispecific antibody with one BCMA binding arm and one CD3 binding arm,"CRS observed, patient(s)",[1]; 10 μg/kg IV cohort,1 (50.0%)
same,"CRS observed, patient(s)",[1]; 30 μg/kg IV cohort,4 (80.0%)
same,Patients who experienced dose limiting toxicities (DLTs),[1]; 30 μg/kg IV cohort,1 patient
same,Patients in whom CRS also occurred after later doses (second to fourth),[1]; 50 μg/kg IV,3 patients
same,"CRS observed, patient(s)",[1]; 50 μg/kg IV cohort,6 (100.0%)
same,Patients who experienced dose limiting toxicities (DLTs),[1]; 50 μg/kg IV cohort,1 patient
same,CRS Grade 1 (patients),"[1]; 80 μg/kg Q1W SC, N = 6",2
same,CRS Grade 2 (patients),"[1]; 80 μg/kg Q1W SC, N = 6",1
same,CRS Mean duration,"[1]; 80 μg/kg Q1W SC, N = 6",1 days
same,Patients with CRS,"[1]; 80 μg/kg Q1W SC, N = 6",3 (50%)
same,CRS Grade 1 (patients),"[1]; 130 μg/kg Q1W SC, N = 4",2
same,CRS Grade 2 (patients),"[1]; 130 μg/kg Q1W SC, N = 4",0
same,CRS Mean duration,"[1]; 130 μg/kg Q1W SC, N = 4",3 days
same,Patients with CRS,"[1]; 130 μg/kg Q1W SC, N = 4",2 (50%)
same,CRS Grade 1 (patients),"[1]; 215 μg/kg Q1W SC, N = 4",3
same,CRS Grade 2 (patients),"[1]; 215 μg/kg Q1W SC, N = 4",0
same,CRS Mean duration,"[1]; 215 μg/kg Q1W SC, N = 4",3 days
same,Patients with CRS,"[1]; 215 μg/kg Q1W SC, N = 4",3 (75%)
same,CRS Grade 1 (patients),"[1]; 360 μg/kg Q1W SC, N = 4",2
same,CRS Grade 2 (patients),"[1]; 360 μg/kg Q1W SC, N = 4",1
same,CRS Mean duration,"[1]; 360 μg/kg Q1W SC, N = 4",1.7 days
same,Patients with CRS,"[1]; 360 μg/kg Q1W SC, N = 4",3 (75%)
same,CRS Grade 1 (patients),"[1]; 600 μg/kg Q1W SC, N = 6",4
same,CRS Grade 2 (patients),"[1]; 600 μg/kg Q1W SC, N = 6",2
same,CRS Mean duration,"[1]; 600 μg/kg Q1W SC, N = 6",1.7 days
same,Patients with CRS,"[1]; 600 μg/kg Q1W SC, N = 6",6 (100%)
same,Decrease of medium duration of CRS by introducing priming dose,"[1]; 600 μg/kg priming then 1000 μg/kg vs 1000 μg/kg without priming, SC",50%
same,CRS Grade 1 (patients),[1]; [2],11
same,CRS Grade 2 (patients),[1]; [2],9
same,CRS Mean duration,[1]; [2],2 days
same,Patients with CRS,[1]; [2],20 (100%)
same,CRS Grade 1 (patients),"[1]; 1000 μg/kg Q1W SC, N = 6",5
same,CRS Grade 2 (patients),"[1]; 1000 μg/kg Q1W SC, N = 6",1
same,CRS Mean duration,"[1]; 1000 μg/kg Q1W SC, N = 6",4 days
same,Patients with CRS,"[1]; 1000 μg/kg Q1W SC, N = 6",6 (100%)
same,Patients who experienced dose limiting toxicities (DLTs),"[1]; IV cohorts, 23 patients, febrile neutropenia Grade 3 and electrocardiogram QT prolongation Grade 1",2 patients
same,CRS onset after dosing,"[1]; IV cohorts, each of the 11 patients with CRS",≤ 2 days
same,Impact of dose frequency (Q1W v. Q2W) on the CRS,"[1]; Part 1.1, 600 μg/kg priming, 1000 μg/kg SC",no impact
same,Patients who experienced dose limiting toxicities (DLTs),[1]; SC cohorts (80-1000 μg/kg),No patients
same,CRS onset after dosing,"[1]; SC cohorts, primarily",≤ 2 days
same,Patients who experienced maximum Grade 1 CRS,[1]; all IV treated patients,6 (26.1%)
same,Patients who experienced maximum Grade 2 CRS,[1]; all IV treated patients,5 (21.7%)
same,Patients who experienced maximum Grade 1 CRS,[1]; all SC treated patients,18 (60.0%)
same,Patients who experienced maximum Grade 2 CRS,[1]; all SC treated patients,5 (16.7%)
same,CRS severity in SC-treated vs IV-treated patients,[1]; despite higher overall dose exposure in SC-treated patients,less severe CRS
same,Toxicities,[1]; highest dose levels of 600 and 1000 μg/kg SC,tolerable and manageable
